# Data from US5985836A, “Alpha-1 proteinase inhibitor binding peptides” (Bayer Corporation, priority 1998, dated 1999).
# Ends that are not written are not given here.
# Assays:
# A1PI [1] = target: T1, A1PI (Homo sapiens, UniProt P01009); assay: A1PI binding on peptide-resin column, injection of 1 mg A1PI in equilibration buffer; conditions: for % of Total A1PI Eluted by Fraction (Based on Absorbance at 280 nm), 1M NaCl / % of Total A1PI Eluted by Fraction (Based on Absorbance at 280 nm), 2% Acetic Acid / % of Total A1PI Eluted by Fraction (Based on Absorbance at 280 nm), Flowthrough: 1 mg A1PI; for Percent AlPI Eluted by Fraction, 1M NaCl / Percent AlPI Eluted by Fraction, 2% Acetic Acid / Percent AlPI Eluted by Fraction, Flowthrough: 1 mg AlPI
# T1 construct: Human plasma is currently the only approved source of therapeutic AlPI
# Outline: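 Percent of total eluted A1PI per fraction (flowthrough, NaCl steps, 2% acetic acid) determined by A280 integration or immunonephelometry. Columns of peptide-derivatized A-Totda-Toyopearl resin (0.1 mmole/g) received 1 mg A1PI at 4 °C or 20 °C, flow 865 or 523 μl/min.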
# A1PI [2] = target: T1, A1PI; assay: Purification of A1PI from Effluent II+III on peptide column, A1PI mass balance; format: binding; conditions: 1 ml Eff. II+III, 4° C.; for Percent Eluted by Fraction, 1M NaCl / Percent Eluted by Fraction, 2% Acetic Acid / Percent Eluted by Fraction, Flowthrough: A1PI
# Outline: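 Mass balance per protein was determined over the load and each step eluate (1M NaCl, 3M NaCl, 2% acetic acid) of peptide columns challenged with 1 ml Effluent II+III. The feed contained 20% ethanol and 20-25 mg/ml hSA, the flow was 865 μl/min after a 10 min residence, and the temperature was 4° C.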
# [3] = peptide density 6 μmol/g, 4° C.
# [4] = peptide density 6 μmol/g, 20° C.
# [5] = peptide density 17 μmol/g, 4° C.
# [6] = peptide density 17 μmol/g, 20° C.
# [7] = peptide density 25 μmol/g, 4° C.
# [8] = peptide density 25 μmol/g, 20° C.
# [9] = peptide density 39 μmol/g, 4° C.
# [10] = peptide density 39 μmol/g, 20° C.
# [11] = peptide density 54 μmol/g, 4° C.
# [12] = peptide density 54 μmol/g, 20° C.
# [13] = peptide density 58 μmol/g, 4° C.
# [14] = peptide density 58 μmol/g, 20° C.
# [15] = peptide density 99 μmol/g, 4° C.
# [16] = peptide density 99 μmol/g, 20° C.
# [17] = peptide density 135 μmol/g, 4° C.
# [18] = peptide density 135 μmol/g, 20° C.
# [19] = sequence truncations, 4° C., immunonephelometry
# [20] = sequence truncations, 20° C., immunonephelometry
# [21] = Table 11, * Below detection limit
# [22] = Table 13, * Below detection limit
# T1 sequence (P01009 25-418): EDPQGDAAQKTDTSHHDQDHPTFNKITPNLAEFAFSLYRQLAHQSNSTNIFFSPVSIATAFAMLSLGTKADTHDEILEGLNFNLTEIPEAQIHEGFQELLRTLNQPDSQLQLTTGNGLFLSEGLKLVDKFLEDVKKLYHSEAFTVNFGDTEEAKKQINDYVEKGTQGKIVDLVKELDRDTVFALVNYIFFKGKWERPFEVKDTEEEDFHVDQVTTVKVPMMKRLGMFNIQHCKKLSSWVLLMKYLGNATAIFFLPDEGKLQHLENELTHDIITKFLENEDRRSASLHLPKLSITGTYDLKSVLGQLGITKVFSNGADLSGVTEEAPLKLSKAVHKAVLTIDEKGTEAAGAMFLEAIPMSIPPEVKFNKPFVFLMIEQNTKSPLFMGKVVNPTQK
substance,measurement,setting,value
VIFLVR,"% of Total A1PI Eluted by Fraction (Based on Absorbance at 280 nm), 1M NaCl","A1PI [1]; Trp position mutations, 4° C.",3%
same,"% of Total A1PI Eluted by Fraction (Based on Absorbance at 280 nm), 2% Acetic Acid","A1PI [1]; Trp position mutations, 4° C.",97%
same,"% of Total A1PI Eluted by Fraction (Based on Absorbance at 280 nm), Flowthrough","A1PI [1]; Trp position mutations, 4° C.",0%
same,"% of Total A1PI Eluted by Fraction (Based on Absorbance at 280 nm), 1M NaCl","A1PI [1]; Trp position mutations, 20° C.",8%
same,"% of Total A1PI Eluted by Fraction (Based on Absorbance at 280 nm), 2% Acetic Acid","A1PI [1]; Trp position mutations, 20° C.",92%
same,"% of Total A1PI Eluted by Fraction (Based on Absorbance at 280 nm), Flowthrough","A1PI [1]; Trp position mutations, 20° C.",0%
same,"% of Total A1PI Eluted by Fraction (Based on Absorbance at 280 nm), 1M NaCl","A1PI [1]; VIFLVR point mutations, 4° C.",3%
same,"% of Total A1PI Eluted by Fraction (Based on Absorbance at 280 nm), 2% Acetic Acid","A1PI [1]; VIFLVR point mutations, 4° C.",97%
same,"% of Total A1PI Eluted by Fraction (Based on Absorbance at 280 nm), Flowthrough","A1PI [1]; VIFLVR point mutations, 4° C.",0%
same,"% of Total A1PI Eluted by Fraction (Based on Absorbance at 280 nm), 1M NaCl","A1PI [1]; VIFLVR point mutations, 20° C.",8%
same,"% of Total A1PI Eluted by Fraction (Based on Absorbance at 280 nm), 2% Acetic Acid","A1PI [1]; VIFLVR point mutations, 20° C.",92%
same,"% of Total A1PI Eluted by Fraction (Based on Absorbance at 280 nm), Flowthrough","A1PI [1]; VIFLVR point mutations, 20° C.",0%
same,"Percent AlPI Eluted by Fraction, 1M NaCl",A1PI [1]; [3],21%
same,"Percent AlPI Eluted by Fraction, 2% Acetic Acid",A1PI [1]; [3],0%
same,"Percent AlPI Eluted by Fraction, Flowthrough",A1PI [1]; [3],87%
same,"Percent AlPI Eluted by Fraction, 1M NaCl",A1PI [1]; [4],13%
same,"Percent AlPI Eluted by Fraction, 2% Acetic Acid",A1PI [1]; [4],0%
same,"Percent AlPI Eluted by Fraction, Flowthrough",A1PI [1]; [4],79%
same,"Percent AlPI Eluted by Fraction, 1M NaCl",A1PI [1]; [5],10%
same,"Percent AlPI Eluted by Fraction, 2% Acetic Acid",A1PI [1]; [5],2%
same,"Percent AlPI Eluted by Fraction, Flowthrough",A1PI [1]; [5],80%
same,"Percent AlPI Eluted by Fraction, 1M NaCl",A1PI [1]; [6],18%
same,"Percent AlPI Eluted by Fraction, 2% Acetic Acid",A1PI [1]; [6],22%
same,"Percent AlPI Eluted by Fraction, Flowthrough",A1PI [1]; [6],68%
same,"Percent AlPI Eluted by Fraction, 1M NaCl",A1PI [1]; [7],1%
same,"Percent AlPI Eluted by Fraction, 2% Acetic Acid",A1PI [1]; [7],43%
same,"Percent AlPI Eluted by Fraction, Flowthrough",A1PI [1]; [7],57%
same,"Percent AlPI Eluted by Fraction, 1M NaCl",A1PI [1]; [8],0%
same,"Percent AlPI Eluted by Fraction, 2% Acetic Acid",A1PI [1]; [8],72%
same,"Percent AlPI Eluted by Fraction, Flowthrough",A1PI [1]; [8],28%
same,"Percent AlPI Eluted by Fraction, 1M NaCl",A1PI [1]; [9],4%
same,"Percent AlPI Eluted by Fraction, 2% Acetic Acid",A1PI [1]; [9],96%
same,"Percent AlPI Eluted by Fraction, Flowthrough",A1PI [1]; [9],0%
same,"Percent AlPI Eluted by Fraction, 1M NaCl",A1PI [1]; [10],0%
same,"Percent AlPI Eluted by Fraction, 2% Acetic Acid",A1PI [1]; [10],100%
same,"Percent AlPI Eluted by Fraction, Flowthrough",A1PI [1]; [10],0%
same,"Percent AlPI Eluted by Fraction, 1M NaCl",A1PI [1]; [11],0%
same,"Percent AlPI Eluted by Fraction, 2% Acetic Acid",A1PI [1]; [11],100%
same,"Percent AlPI Eluted by Fraction, Flowthrough",A1PI [1]; [11],0%
same,"Percent AlPI Eluted by Fraction, 1M NaCl",A1PI [1]; [12],0%
same,"Percent AlPI Eluted by Fraction, 2% Acetic Acid",A1PI [1]; [12],100%
same,"Percent AlPI Eluted by Fraction, Flowthrough",A1PI [1]; [12],0%
same,"Percent AlPI Eluted by Fraction, 1M NaCl",A1PI [1]; [13],4%
same,"Percent AlPI Eluted by Fraction, 2% Acetic Acid",A1PI [1]; [13],96%
same,"Percent AlPI Eluted by Fraction, Flowthrough",A1PI [1]; [13],0%
same,"Percent AlPI Eluted by Fraction, 1M NaCl",A1PI [1]; [14],0%
same,"Percent AlPI Eluted by Fraction, 2% Acetic Acid",A1PI [1]; [14],100%
same,"Percent AlPI Eluted by Fraction, Flowthrough",A1PI [1]; [14],0%
same,"Percent AlPI Eluted by Fraction, 1M NaCl",A1PI [1]; [15],0%
same,"Percent AlPI Eluted by Fraction, 2% Acetic Acid",A1PI [1]; [15],100%
same,"Percent AlPI Eluted by Fraction, Flowthrough",A1PI [1]; [15],0%
same,"Percent AlPI Eluted by Fraction, 1M NaCl",A1PI [1]; [16],0%
same,"Percent AlPI Eluted by Fraction, 2% Acetic Acid",A1PI [1]; [16],93%
same,"Percent AlPI Eluted by Fraction, Flowthrough",A1PI [1]; [16],7%
same,"Percent AlPI Eluted by Fraction, 1M NaCl",A1PI [1]; [17],0%
same,"Percent AlPI Eluted by Fraction, 2% Acetic Acid",A1PI [1]; [17],100%
same,"Percent AlPI Eluted by Fraction, Flowthrough",A1PI [1]; [17],0%
same,"Percent AlPI Eluted by Fraction, 1M NaCl",A1PI [1]; [18],0%
same,"Percent AlPI Eluted by Fraction, 2% Acetic Acid",A1PI [1]; [18],95%
same,"Percent AlPI Eluted by Fraction, Flowthrough",A1PI [1]; [18],5%
same,"Percent AlPI Eluted by Fraction, 1M NaCl","A1PI [1]; sequence order, 4° C.",3%
same,"Percent AlPI Eluted by Fraction, 2% Acetic Acid","A1PI [1]; sequence order, 4° C.",97%
same,"Percent AlPI Eluted by Fraction, Flowthrough","A1PI [1]; sequence order, 4° C.",0%
same,"Percent AlPI Eluted by Fraction, 1M NaCl","A1PI [1]; sequence order, 20° C.",7%
same,"Percent AlPI Eluted by Fraction, 2% Acetic Acid","A1PI [1]; sequence order, 20° C.",93%
same,"Percent AlPI Eluted by Fraction, Flowthrough","A1PI [1]; sequence order, 20° C.",0%
same,"Percent AlPI Eluted by Fraction, 1M NaCl",A1PI [1]; [19],3%
same,"Percent AlPI Eluted by Fraction, 2% Acetic Acid",A1PI [1]; [19],97%
same,"Percent AlPI Eluted by Fraction, Flowthrough",A1PI [1]; [19],0%
same,"Percent AlPI Eluted by Fraction, 1M NaCl",A1PI [1]; [20],7%
same,"Percent AlPI Eluted by Fraction, 2% Acetic Acid",A1PI [1]; [20],93%
same,"Percent AlPI Eluted by Fraction, Flowthrough",A1PI [1]; [20],0%
same,"Mass A1PI per Eluate Fraction, 2% Acetic Acid",A1PI [2]; [21],0.57 mg
same,"Mass A1PI per Eluate Fraction, Flowthrough",A1PI [2]; [21],0.13 mg
same,"Percent Eluted by Fraction, 1M NaCl",A1PI [2]; Table 11,0%
same,"Percent Eluted by Fraction, 2% Acetic Acid",A1PI [2]; Table 11,82%
same,"Percent Eluted by Fraction, Flowthrough",A1PI [2]; Table 11,18%
same,"Mass A1PI per Eluate Fraction, 1M NaCl",A1PI [2]; [22],0.07 mg
same,"Mass A1PI per Eluate Fraction, 2% Acetic Acid",A1PI [2]; [22],0.91 mg
same,"Mass A1PI per Eluate Fraction, Flowthrough",A1PI [2]; [22],0.32 mg
same,"Percent Eluted by Fraction, 1M NaCl",A1PI [2]; Table 13,5%
same,"Percent Eluted by Fraction, 2% Acetic Acid",A1PI [2]; Table 13,70%
same,"Percent Eluted by Fraction, Flowthrough",A1PI [2]; Table 13,25%
